In the nanobody polyreactivity screen of Harvey et al. (2022):

Experiment: yeast display, Sf9 membrane polyspecificity reagent, FACS + sequencing; frameworks hold sequencing errors
Summary of the method: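 In a synthetic yeast display library (Saccharomyces cerevisiae BJ5465), nanobody expression was induced with galactose for 36–48 hours. FACS gates were set low and high (top ~1%) using anti-HA fluorescence for expression and streptavidin fluorescence for binding of the Sf9 membrane reagent. Each polyreactivity label is drawn from the gate of origin.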

Row | Sequence | polyreactivity (PSR sort gate)
1 | QVQLVESGGGLVQAGGSLRLSCAASGGTSAVYAMGWYRQAPGKERELVAAISSDGSTNYADSVKGRFTISRDNAKNTVYLQMNSLKPEDTAVYYCAVDFSTYEWSGHITRASGSYDYWGQGTQVTVSS | low polyreactivity
2 | KVQLVESGGGLVQAGGSLRLSCADSGIFRYYAMGWYRQAPGKEREFVAAMTRGGSTNYADSVKGRFTISRDNAKNSVYLQMNSLKPEDTEVYYCARDGYREFDWGQGTQVTVSS | high polyreactivity
3 | QVQLVESGVRLVQAGGSHRLSCAASARTFYPNAMGWYRQAPGKEREFVARISDSGGSSYYADSVKGRFTISRDNAKNTVYLQMNSLKPEDTAVYYCAADYVDPRVNEYDYWGQGTQVTVST | low polyreactivity
4 | QVQLVESGGCLVQAGGSLRLSCAASGFTFRYYAMGWYRQAPGKERELVASITGHGGSTYYADSVKGRFTISRDNAKNTVYLQMKSLKPEDTAVYYCNARVRGYYEYNYWGQGTQVTVST | high polyreactivity
5 | QVQLVESGGGLVQAGGSLRLSCAASGFTFRWYTMGWYRQAPGKEREFVAAISSSGGSTYYADSVKGRFTISRDNAKNTVYLQMKSLKPEDTAVYYCARASRGYTYEYWGQGTQVTVSS | high polyreactivity
6 | QVQLVESGGGLVQAGGSLRLSCAASGRIFSYYAMGWYRQAPGKERELVATISGSGGSTYYADSVKGRFTNSRDNAKNNVYLQMNSLKPEDTAVYYCAARRSGRTRYYWGQGTQVTVSS | high polyreactivity
7 | QVQLVESGGGLVQAGGSLRLSCAASGSTFVVNTMGRYRQAPGKERELVAAISTGSSTYADSVKGRFTISRDNAKNTVYLQMNSLKPEDTAVYYCNTAFPGKYDYWGQGTQVTVSS | low polyreactivity
8 | QVQLVESGGGLDQAGGSLRLSCAASGRTFAHNAMGWYRQAPGKERELVAAITWSGGTTYYADSVKGRFTISRDNAKNTVYLQMNSLKPEDTAVYYCNTYSYLADPKYDYWGQGTQVTVSS | low polyreactivity
9 | QVQLVESGGGLVQAGGSLRLSCAASGSIFNRYTMGWYRQAPGKEREFVAAIRNSGSRTYYADSVKRRFTISRDNAKNTVYLQMNSLKPEDTAVYYCAADGPLISSESYYWGQGTQVTVSS | low polyreactivity
10 | QVHLVESGGGLVQAGGSLRLSCAASGYTRFYALGWYRQAPGKERELVAAISSSGGNTYYADSVKGSFTISRDNAKNTVYLQMNSLKPEDTAVYYCAKYVSYSRTLYDYWGQGTQVTVSS | high polyreactivity
11 | QVQLVESGGGLVQAGGSLRLSCAASGRIFVNNAMGWSRQAPGKERELVAAISKRGGSTYYADSVKGRFTISRDNAKNSVYLQMNSLKPEDTAVYYCAATPVYSGPYDYWGQGTQVTVSS | high polyreactivity
12 | QVQLVESGGGLVQAGGSLRLSCAASGGIFLSNAMGWYRQAPGKERELVAAISRSGGSTYYADSVKGRFTISRDNAKNTVYLQMNSLKPEDTAVYYCAARWTRNYGMNYWGQGTQVTVSS | high polyreactivity
13 | QVQLVESGGGLVQAGGSLRLSCAASGSISVVNMGWYRQPPRKERQFVASITSSGSTTYADSVKGRFTISRDNAKNTVYLQMNSLKPEDTAVYYCAADVGTDYTYQHPAGAAYDYWGEGTQVTVSS | low polyreactivity
14 | QVQLVESGGGLVQAGGSLRLSCAASGFTFSYYVMGWYRQAAGKERELVAAINRGGSTNYADSVKRRFTISRDNAKNTVYLQMNSLKPEDTAVYYCAARFPGYGYWGQGTEVTVSS | high polyreactivity
15 | QVQLVESGGGLVQAGGSLRLSCAASGRTFVVYAMGWYRQAPGKERELVAVIRVIGGSTNYADSVKRRFTISRDNAKNTVYLQMYSLKPEDTAVYYCAAAWSHSRWDTHDYWGQGTQVNVSS | low polyreactivity
16 | QVQLVESGGGLVQAGGSLRLTCAASASNFVSYPMGWYRPAHGKERELVAAITSAGTTYYAYSVKGRFTISRDNAKNTVYLQMNTLKPEDTAVYYCNTDASFKRTRVSPETEYGYWGQGTQVTVSS | low polyreactivity
17 | QVQLVESGGGIVQAGGSLRLSCAASGSTFFDNAIGWYRQAPGKERELVAAITRGGSKHYADSVMGRFTISRDNAKNTVYLQMNSVKPEDTAVYSCNAQRYRVPYDYWGQGTQVTVSS | low polyreactivity
18 | QVQLVESGGGLVQAGGSLRLSCAASGSTFGLYAMGWYIQAPGKERELVAAISSRGSRTYYADSVKGRFTISRDNAKNTVYLQLNSLIPEDTAVYYCNALYASSVRHKVTYDYWGQGTQVTVSS | high polyreactivity
19 | QVQLVESGGGLVQAGGSLRLSCAASGSTFRLYAMGWYRQAPGKERELVAAISQRGGSTYYADSVKGRFTISRDNAKNTVYLQMNSLKPEDTAVYYCNTDWYRKWGKPYYYWGQGTQVTVSS | high polyreactivity
20 | QVQLVESGGGLVQAGGSLRLSCAASGNIFTGYMGWYRQAPRKERELVAAISRSGGRTHYADSVKGRFTISRDNAKNTVYLQMNSLKPEDTAVYYCNADVRRYTAFTKYPYAFNYWGQGTQVTVSS | high polyreactivity
21 | QVQLVESGGRLVQAGGSLRLSCAASGFTFGAYAMGWYRQAPGKERELVATIRYSGDSTYYADSVKGRFTISRDNAKNTVYLQMNSLKPEDTAVSSCAAYSTEGGGSPDWFESFDYWGQGTQVTVSS | low polyreactivity

Row | Sequence | polyreactivity (PSR sort gate)
22 | QVQLVESGGGLVQAGGSLRLSCAASGSTFYYYAMGWYRQAPGKERELVARITWIGGSTYYADSVKGRFTISRDNAKNTVYLQMNSLKPEDTAVYYCAAGWYRRIYGGWGYDYWGQGTQVTVSS | low polyreactivity
23 | QVQLVESGGGLVQAGGSLRLSCADSGSTFDSYAMGWYRQAPGKERELVASITSRGGRTYYADSVKGRFTISRDNAKNTVYLQMNSLKPEDTALYYCNAYRRNYYYYQRHGYWGQGTQVTVSS | high polyreactivity
24 | QVQLVESGGGLVQAGGSLRLSCAASGRIFYAYAMGWYRQAPGTERELVAAISSGGSTKYADSVKGRFTISRDNAKNTVYLQMNSLKPEDTAVYYCNADATAQSFGSLFDYWGLGTQVTVSS | low polyreactivity
25 | QVQLVESGGGLVQAGGSLRLSCASSGLTFRNYAMGGYRPAPGKERELVAAITVSGGSTYYADSVKGRFTISRDNAKNTVYLQMNSLKPEDTAVYYCAARVIHTTYSRNYYYWGQGTQVTVSS | high polyreactivity
26 | QVQLVESGGGLVQAGGSLRLSCAASGFIFVYYAMGWYRQAPGKERELVAAISKRGGNTYYADSVKGRFTISRDNAKNTVYLQMNSLKPEDTAVYYCAADGPGHYYAELEYDYWGQGTQVTVSS | high polyreactivity
27 | QVQLVESGGGLVQARGSLRLSCAASGRIFTTYAMGWYRQAPGKESELVAAISQTGGSTYYADSVKGRFTISRDNAKNTVYLKMNSLKPEDTAVYYCNAGPAGYYDDDYWGQGTQVTVSS | low polyreactivity
28 | QVQLVESGGGLVQAGGSLRLSCAASGSTFNVNAMGWYSQAPGKERELVATISSGGSTNYADSVKGRFTISRDNAKNTVYLQMNSLKPEDTAVYYCAKEYGSIIPYDYWGQGTQVTVSS | low polyreactivity
29 | QVQLVESGGGLVQAGGSLRLSCAASGRIFVANAMGWYRKAPGTERELVAAISRRGGRTYYADSVKGRFTISRDNAKNTVYLQMNSLKPEDTAVYYCAAIRSVTRFPRRYDYWGQGTPVTVSS | high polyreactivity
30 | QVQLVESGGGLFQAGGSLRLSCAASGFIFRSNAMGGYRHAPGKERELVAAISGGGITYYADSVKGRFTISRDNAKNTVYLQMNSLKPEDTAVYYCAVRWYFKTHWGGYHPYEYCGQGTQVTVSS | high polyreactivity
31 | QVQLVESGGGLFQAGGSLRLSSAASGSTFDPYAMGWSRQAPGKERELVATITYSGGRTYYADSVKGRFTISGDNAKNTVYLQMNSLKPEDTAVYYCAVDVVYWGGDYCGQGTQVTVSS | low polyreactivity
32 | QVQLVESGGGLVQAGGSLRLSCAASGRTFIYYAMGWYTQAPRKERDYVAIITWNGTSTNYADSVKGRFTISRDNAKNTVYLQMNSLYPEDTAVYYCAASFWTDYYRYDYWGQGTQVTVSS | low polyreactivity
33 | QVQLVESGGGLVQAGGSLRLSCAASGSTFLKYAMGWYRQAPGKERELVAAISRSGTSTYYADSVKGRFTISRDNAKNTVYLQMNSLKPEDTAVYYCAARWIRSNTQYDYWGQGTQVTVSS | high polyreactivity
34 | QVQLVESGGGLVQAGGSLRLSCAASGSIFTFYAMGWYRQAPGKERELVARITRGVSTNYADSVKGRFTISRDNAKITVYLQLNSLKPEDTAVYYCAAESGNRYEYWGQGTQVTVSS | low polyreactivity
35 | QVQLVESGGGLVQAGGSLRLSCAASGSIFRENAMGWYRQAPGKERELVAAITDGGDRTYYADSVKGRFTISRDNAKNTVYLQMNSLKPEDTAVYYCAARWLYWPRYNSLVYTHRDSWGQGTQVTVSS | low polyreactivity
36 | QVQLVESGGGLVQAGGSHRLSCAASGIIFRGYPMGWYRPAPGIERELVASITRRRGSTRYADSVKGRFTISRDNAKNTVYLQMNSLKPEDTAVYYCAAVGVGKTSTAYGYWGQGTQVTVSS | high polyreactivity
37 | QVQLVETGGGLVQAGGSLRLSCAASGFIFIHNAMGWYRQAPGKERELVAAISYSGGSTYYADSVKGRFTISRDNEKNTVYLQMNSLKPEDTAVYYCAARGALHHWYRYDDWGQGTQVTVSS | low polyreactivity
38 | QVQLVESGGGLVQAGGSLRLSCAASGRIIVLYAMGWSRQAPGKERELVASIRSGGSTNYADSVKGRFTISRDNAKNTVYLQMNSLKPEETAVYYCAARPDHKRYDYWGQGTQVTVSS | low polyreactivity
39 | QVQLVESGGGLVQAGGSLRLSCAASGRIFYWNAMGCYRQAPGKERELVADISTGGSTYYADSVKGRFTISRDNAKNTVYLQMNRLKPEDTAVYYCAVVYVSLWPSATDWSGFGYWGQGTQVTVSS | low polyreactivity
40 | QVQLVESGGGLVQAGGSLRLSCAASVRIFDYNAMGWYRQAPGKERELVAAITSGGSTNYADSVKGRFTISRDNAKNTVYLQMNSLKPEDTAVYYCNAEPETTIDYWGQGTQVTVSS | low polyreactivity
41 | QVQLVESGGGLVQAGGSLRLSCAASGIIFYGNAMGWYRQAPGKERELVAAISWSGSSTYYADSVKGRFTISRDNAKNTVYLQMNSLKPEDPAVYYCNKATSSVRYLKYYYWGQGTQVTVSS | high polyreactivity
